In series [1] the target is SUD_(core), the core of the SARS-unique domain (Nsp3 residues 389-652) of SARS coronavirus (SARS coronavirus (strain TOR2)). Put plainly: crystal structure.
In the next series the target is SUDcore (SUDc5b) (SARS coronavirus strain TOR2, UniProt P0C6U8 1207-1470). As to the kind of experiment: ZIGE (gel shift); 100 mM KCl. Conditions: protein: recombinant; tags: N-terminal His-tag, factor Xa site linker; chain copies: 2; G4.
For another series, the target named is full-length SUD (Nsp3c) (SARS coronavirus strain TOR2, UniProt P0C6U8 1207-1544). Put plainly: ZIGE (gel shift); 100 mM KCl. The conditions noted are these: protein: recombinant; tags: N-terminal His-tag, factor Xa site linker; G4.
The target of another series is SUD-N (SARS coronavirus strain TOR2, UniProt P0C6U8 1207-1342). As to the kind of experiment: ZIGE (gel shift). The conditions noted are these: protein: recombinant; tags: N-terminal His-tag, factor Xa site linker; G4 (oligo(G) known to form quadruplexes). Background: A gel shift assay detects complexes by their altered migration in electrophoresis.
Another series addresses SUD-M (SARS coronavirus strain TOR2, UniProt P0C6U8 1343-1470). As to the kind of experiment: ZIGE (gel shift). Conditions: protein: recombinant; tags: N-terminal His-tag, factor Xa site linker; G4 (oligo(G) known to form quadruplexes).

This note sets out measurements from publication PMC2674928, “The SARS-Unique Domain (SUD) of SARS Coronavirus Contains Two Macrodomains That Bind G-Quadruplexes”.

As for “SUD_(core), the core of the SARS-unique domain (Nsp3 residues 389-652) of SARS coronavirus (domain or fragment)”, the stoichiometry N – broadly, a count of units in the complex or per binding partner – in series [1] is 2.

B1: UG4U (structured_RNA)
RNA: UGGGGU
B1: the binding result with SUDcore (SUDc5b) is “binds”.

B2: elastin 3'-NTR RNA G4 (structured_RNA)
RNA: UGGGGGGAGGGAGGGAGGGA
In the case of B2, the binding result with full-length SUD (Nsp3c) and with SUDcore (SUDc5b) was “binds” in each case.

B3: Bcl-2 promoter G4 (structured_DNA)
DNA: GGGCGCGGGAGGAATTGGGCGGG
As to B3, the binding result with full-length SUD (Nsp3c) and with SUDcore (SUDc5b) was “binds” in each case.

B4: (dG)10 (structured_DNA)
DNA: GGGGGGGGGG
Take B4: the binding result with SUD-N and in the series with SUD-M was “binds” each time.
